Assay [1] deals with human TSLP receptor complex composed of IL-7Rα and TSLPR expressed on cell surface of transfected HEK293T (human) (UniProt Q9HC73).
The target of assay [2] is T1, recombinant cynomolgus monkey TSLP (Macaca fascicularis, UniProt A0A7N9CAT7).
T1 construct: thymic stromal lymphopoietin, cynomolgus monkey; source: bought: AcroBiosystems
As to the kind of experiment: ELISA; recombinant TSLP coated at 1 μg/mL in DPBS pH 7.2 overnight at 4°C; antibodies in serial 3-fold dilutions from 1 μg/mL, 2 hours at room temperature; HRP anti-human IgG detection. As to conditions: both partners purified. In general terms: In an ELISA, binding on a coated surface is turned into a signal by an enzyme label.

Another assay addresses T2, recombinant mouse TSLP (Mus musculus, UniProt Q9JIE6).
T2 construct: thymic stromal lymphopoietin, mouse; also called murine TSLP; source: bought: AcroBiosystems
Described as above. Conditions: both partners purified.

T2 sequence (Q9JIE6 20-140): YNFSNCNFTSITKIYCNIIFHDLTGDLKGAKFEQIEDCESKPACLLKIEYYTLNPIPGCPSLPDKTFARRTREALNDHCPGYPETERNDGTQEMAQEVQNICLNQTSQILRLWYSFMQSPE
human TSLP receptor complex composed of IL-7Rα and TSLPR expressed on cell surface of transfected HEK293T (human), sequence (Q9HC73 23-371, chain 1 of 2): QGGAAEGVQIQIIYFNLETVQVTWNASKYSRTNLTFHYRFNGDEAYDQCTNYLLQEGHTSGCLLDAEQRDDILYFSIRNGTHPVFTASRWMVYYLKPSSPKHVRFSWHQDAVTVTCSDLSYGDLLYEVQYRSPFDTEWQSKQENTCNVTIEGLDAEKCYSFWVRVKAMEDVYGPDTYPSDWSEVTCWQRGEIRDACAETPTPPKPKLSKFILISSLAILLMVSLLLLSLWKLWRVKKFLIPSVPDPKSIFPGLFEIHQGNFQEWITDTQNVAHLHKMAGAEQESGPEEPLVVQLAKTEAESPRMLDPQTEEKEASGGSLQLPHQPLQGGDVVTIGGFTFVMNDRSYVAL
human TSLP receptor complex composed of IL-7Rα and TSLPR expressed on cell surface of transfected HEK293T (human), sequence (chain, as listed by the source, chain 2 of 2): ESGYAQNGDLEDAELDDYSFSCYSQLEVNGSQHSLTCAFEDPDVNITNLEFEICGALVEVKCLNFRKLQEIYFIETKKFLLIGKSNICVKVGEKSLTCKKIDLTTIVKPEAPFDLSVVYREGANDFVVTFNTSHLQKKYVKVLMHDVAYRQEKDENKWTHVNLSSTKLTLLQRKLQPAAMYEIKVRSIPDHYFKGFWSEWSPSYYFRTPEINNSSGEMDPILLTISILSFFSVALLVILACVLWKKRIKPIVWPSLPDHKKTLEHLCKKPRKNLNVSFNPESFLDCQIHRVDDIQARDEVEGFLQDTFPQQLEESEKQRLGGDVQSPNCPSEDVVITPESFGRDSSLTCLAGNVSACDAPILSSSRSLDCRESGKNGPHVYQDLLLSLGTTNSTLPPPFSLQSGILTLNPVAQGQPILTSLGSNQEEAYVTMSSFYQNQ

The molecule “recombinant human thymic stromal lymphopoietin (from UniProt Q969D9 29-159) (ligand)” gave an EC50 of TSLP-driven STAT5 luciferase reporter gene expression in HEK293T cells transfected with TSLPR and IL-7Rα in assay [1] of 1.1 ng/mL.

B1: tezepelumab analogue antibody (antibody, V domains shown)
VH: QMQLVESGGGVVQPGRSLRLSCAASGFTFRTYGMHWVRQAPGKGLEWVAVIWYDGSNKHYADSVKGRFTITRDNSKNTLNLQMNSLRAEDTAVYYCARAPQWELVHEAFDIWGQGTMVTVSS
VL: SYVLTQPPSVSVAPGQTARITCGGNNLGSKSVHWYQQKPGQAPVLVVYDDSDRPSWIPERFSGSNSGNTATLTISRGEAGDEADYYCQVWDSSSDHVVFGGGTKLTVL
notes: heavy chain of tezepelumab as deposited in PDB 5J13; rest of the heavy chain constant region (hinge, Fc) beyond what the PDB entry holds; light chain of tezepelumab as deposited in PDB 5J13; It was captured by anti-Fc probes and detected with anti-human IgG; also called AMG157; MEDI9929; source: Expi293F, transfected, purified (MabSelect SuRe, desalting column)
With B1, the binding result in assay [2] is “binds”; with recombinant mouse TSLP, “no binding (tested: 1 μg/mL)”.

For the origin of these results see article PMC11670205 (Frontiers in Immunology, 2024).
